Residue numbers refer to the chain shown, from its start.
Tests used:
Settings in all cases: protein: recombinant; tags: His6-GST removed with 3C protease; label: DY681
SALL4 ZFC4 I897S+V925S = target: T1, SALL4 ZFC4 I897S+V925S (Mus musculus, UniProt Q8BX22 870-940, I897S;V925S); test: EMSA; apparent; text gives 5.0; poly(dI-dC); EMSA: 68.1 nM DY681-dsDNA, 20 mM HEPES pH 7.5, 150 mM K acetate, 5 mM Mg acetate, 10 ng/ul poly(dI-dC), 30 min on ice; 4% native PAGE, 0.5x TBE, 4 C
T1 sequence: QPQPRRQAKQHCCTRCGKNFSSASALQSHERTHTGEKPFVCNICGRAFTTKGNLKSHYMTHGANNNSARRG

SALL4 ZFC4 V925S = target: T2, SALL4 ZFC4 V925S (Mus musculus, UniProt Q8BX22 870-940, V925S); test: EMSA; apparent; poly(dI-dC); EMSA: 68.1 nM DY681-dsDNA, 20 mM HEPES pH 7.5, 150 mM K acetate, 5 mM Mg acetate, 10 ng/ul poly(dI-dC), 30 min on ice; 4% native PAGE, 0.5x TBE, 4 C
T2 sequence: T1 sequence with S28I

SALL4 ZFC4 R900W = target: T3, SALL4 ZFC4 R900W (Mus musculus, UniProt Q8BX22 870-940, R900W); test: as above
T3 sequence: T1 sequence with S28I, R31W, S56V

SALL4 ZFC4 I897S = target: T4, SALL4 ZFC4 I897S (Mus musculus, UniProt Q8BX22 870-940, I897S); test: as above
T4 sequence: T1 sequence with S56V

B1: EMSA AT-rich probe (dsDNA)
DNA 1: AAAAAATATTAAAAA
DNA 2: TTTTTAATATTTTTT
- Kd (SALL4 ZFC4 I897S+V925S): 5.08 µM
- Kd (SALL4 ZFC4 V925S): 0.91 µM
- Kd (SALL4 ZFC4 R900W): 23 µM
- Kd (SALL4 ZFC4 I897S): 4.8 µM
